Measurements taken from patent US8962819B2, “Anti-C5 alpha antibodies” (Adienne S.A., priority 2002, dated 2015).

Assays:
C5 beta chain = target: T1, C5 beta chain (Homo sapiens, UniProt P01031); assay: Immunoblotting on separated C5 chains; type: binding; conditions: 100 ng chain, FIG. 2 lane 2
T1 construct: Lane 1: 100 ng of C5 alpha chain; lane 2: 100 ng of beta chain; purchased Quidel
T1 sequence (P01031 19-673 limits assumed): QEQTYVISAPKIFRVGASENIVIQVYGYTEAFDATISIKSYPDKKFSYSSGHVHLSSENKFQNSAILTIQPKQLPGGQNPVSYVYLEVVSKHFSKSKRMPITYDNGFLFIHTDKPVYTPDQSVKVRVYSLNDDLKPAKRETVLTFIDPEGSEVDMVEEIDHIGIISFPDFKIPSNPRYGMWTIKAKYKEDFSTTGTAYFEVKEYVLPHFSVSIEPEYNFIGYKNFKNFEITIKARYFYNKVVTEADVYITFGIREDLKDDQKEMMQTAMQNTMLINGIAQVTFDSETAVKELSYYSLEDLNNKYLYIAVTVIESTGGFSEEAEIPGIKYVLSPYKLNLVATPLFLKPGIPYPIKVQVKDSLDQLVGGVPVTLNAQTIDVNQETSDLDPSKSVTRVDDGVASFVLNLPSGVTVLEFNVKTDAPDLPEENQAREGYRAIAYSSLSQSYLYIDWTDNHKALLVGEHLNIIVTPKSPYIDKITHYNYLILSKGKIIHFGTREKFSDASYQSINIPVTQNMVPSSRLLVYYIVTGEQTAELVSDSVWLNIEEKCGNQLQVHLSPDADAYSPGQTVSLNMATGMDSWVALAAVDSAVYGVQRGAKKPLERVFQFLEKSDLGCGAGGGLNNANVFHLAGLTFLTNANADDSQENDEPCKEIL
Description: (§1) The alpha and beta chains of C5 were electrophoretically separated by means of SDS-PAGE in 10% polyacrylamide and then transferred onto nitrocellulose. […] Lane 1: 100 ng of C5 alpha chain; lane 2: 100 ng of beta chain; lane 3: mixture of the two chains. […] It can be seen that scFv TSA-12/22 recognises the alpha chain of C5 in lane 1, but not the beta chain in lane 2.
(§2) Purified proteins. Purified components C4 to C9 were purchased from Quidel (Saint Diego, Calif.) and the human recombinant C5a component was purchased from SIGMA-ALDRICH® S.r.1. (Milan, Italy). C5 alpha and beta subunits were obtained by incubating 50 μg of C5 diluted in 0.55 M TRIS-HCl pH 8.1 containing DTT (0.02 M) for 30 min at room temperature (RT), followed by treatment with iodoacetamide (0.12 M) for 1 hour at RT. Alpha and beta chains were purified by gel filtration on Superose 12 (Pharmacia Biotech, Milan, Italy) in Fast Protein Liquid Chromatography (FPLC) and purity was assessed by SDS-PAGE in non-reducing conditions.
(§3) It was first characterised, by means of the Western-blotting technique, whether the TS-A12/22 antibody recognises the alpha or beta of subunit of the C5 complement component prepared as described in Materials. Briefly the two subunits were electrophoresed in separate wells and transferred on nitrocellulose membranes. A solution containing Tris 50 mM pH 7.6, 0.5 M NaCl and 4% skimmed powder milk was used to block non-specific sites for 1 hour at 37° C. […] The enzymatic reaction was developed with blue tetrazolium and 5-bromo-4-chlorine-3-indolil phosphate (SIGMA-ALDRICH®, 0.30 mg/ml) diluted in 0.1 M Tris-HCl pH 9.5 containing 0.1 M NaCl and 5 mM MgCl2. Rainbow RPN 756 ([…]™ Italy (a trademark of General Electric Healthcare Limited)) were used as molecular weight markers.

C5 alpha chain = target: T2, C5 alpha chain (Homo sapiens, UniProt P01031); assay: Immunoblotting on separated C5 chains; type: binding; conditions: 100 ng chain, FIG. 2 lane 1
T2 construct: Lane 1: 100 ng of C5 alpha chain; lane 2: 100 ng of beta chain; purchased Quidel
T2 sequence (P01031 678-1676 limits assumed): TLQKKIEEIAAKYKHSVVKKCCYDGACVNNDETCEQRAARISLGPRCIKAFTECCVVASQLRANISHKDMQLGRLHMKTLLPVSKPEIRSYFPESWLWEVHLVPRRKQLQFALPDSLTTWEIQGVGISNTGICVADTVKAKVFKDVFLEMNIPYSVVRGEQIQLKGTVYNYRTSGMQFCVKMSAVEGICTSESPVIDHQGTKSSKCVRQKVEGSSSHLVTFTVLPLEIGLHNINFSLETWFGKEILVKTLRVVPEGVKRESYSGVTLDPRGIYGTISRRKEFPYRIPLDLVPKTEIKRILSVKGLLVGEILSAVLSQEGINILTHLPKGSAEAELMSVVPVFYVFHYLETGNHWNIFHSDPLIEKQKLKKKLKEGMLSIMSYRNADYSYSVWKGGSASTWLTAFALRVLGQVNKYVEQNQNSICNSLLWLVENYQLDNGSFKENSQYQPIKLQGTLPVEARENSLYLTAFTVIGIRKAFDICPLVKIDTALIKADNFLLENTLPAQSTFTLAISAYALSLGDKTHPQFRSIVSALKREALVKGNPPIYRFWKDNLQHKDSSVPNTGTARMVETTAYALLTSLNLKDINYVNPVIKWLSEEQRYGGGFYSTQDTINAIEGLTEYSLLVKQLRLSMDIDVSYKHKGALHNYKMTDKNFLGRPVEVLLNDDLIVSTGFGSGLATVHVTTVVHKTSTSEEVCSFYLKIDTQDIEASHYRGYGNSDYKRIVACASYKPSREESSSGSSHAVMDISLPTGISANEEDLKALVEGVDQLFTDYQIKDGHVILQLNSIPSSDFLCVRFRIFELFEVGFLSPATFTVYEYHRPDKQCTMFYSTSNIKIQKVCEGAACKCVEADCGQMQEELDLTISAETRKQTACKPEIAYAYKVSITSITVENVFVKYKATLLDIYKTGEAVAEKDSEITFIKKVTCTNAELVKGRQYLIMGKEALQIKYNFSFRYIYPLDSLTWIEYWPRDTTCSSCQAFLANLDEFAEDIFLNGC
Description: as §1, §2, §3

B1: TS-A12/22: anti-C5 scFv obtained from TS-A12 by VL chain shuffling; VH3/V-48 and Vλ3/V2-14; amino acid sequence SEQ ID NO:6 (protein, listed as Homo sapiens)
scFv: DIRMTQSPDSLAVSLGERATINCKSSQSVLYSSNNKNYLAWYQQKPGQPPKLLIYWASTRESGVPDRFSGSGSGTDFTLTISSLQAEDVAVYYCQQYYSTPQLTFGGRTKVDIKSGGSTITSYNVYYTKLSSSGTQVQLQQSEGGVVQPGRSLRLSCAASGFTFSSYGMNWVRQAPGKGLEWVSYISSSSSTIYYADSVKGRFTISRDNSKNTLYLQMNSLRAEDTAVYYCARGPGMDVWGQGTTVTVSS
B1 was tested, and the “recognition of C5 beta sub-unit” value (C5 beta chain) was “does not recognise”, the “recognition of C5 beta sub-unit” value (C5 beta chain; listed as TSA-12/22) was “not” and the “recognition of C5 alpha sub-unit” value (C5 alpha chain) was “recognises”.
